Laboratory results published in US6750325 (CELLTECH R AND D, dated 2004).

Molecular target: T1, CD3 antigen of the T-cell receptor-CD3 complex on human T cells (human, UniProt P07766 23-207)
T1 construct: whole, on cells; also called OKT3 antigen
Assay: antigen binding assay on CD3 positive cells, COS cell supernatant (cell line not restated)
Description: The procedure was as follows:
HUT 78 cells (human T cell line, CD3 positive) were maintained in culture. Monolayers of HUT 78 cells were prepared onto 96 well ELISA plates using poly-L-lysine and glutaraldehyde. Samples were added to the monolayers for 1 hour at room temperature. The plates were washed gently using PBS. F(ab')_2 goat anti-human IgG Fc (HRPO conjugated) or F(ab')_2 goat anti-mouse IgG Fc (HRPO conjugated) was added as appropriate for humanised or mouse samples. Substrate was added to reveal the reaction. The negative control for the cell-based assay was chimer B72.3. […] Binding was measured by the following procedure: HPB-ALL cells were harvested from tissue culture. Cells were incubated at 4° C. for 1 hour with various dilutions of test antibody, positive control antibody, or negative control antibody. The cells were washed once and incubated at 4° C. for 1 hour with an FITC-labelled goat anti-human IgG (Fc– specific, mouse absorbed). The cells were washed twice and analysed by cytofluorography. […] Cells incubated with mock-transfected COS cell supernatant, followed by the FITC-labelled goat anti-human IgG, provided the negative control. […] The samples were incubated for 1 hour at 4° C., washed twice and analysed by cytofluorography.

B1: fully CDR-grafted antibody kgL221A with gH341 (kgL221A/kgH341) (antibody, V domains shown)
VH: QVQLVESGGGVVQPGRSLRLSCSSSGYTFTRYTMHWVRQAPGKGLEWVAYINPSRGYTNYNQKFKDRFTISRDNSKNTLFLQMDSLRPEDTGVYFCARYYDDHYCLDYWGQGTTLTVSS
VL: QIVMTQSPSSLSASVGDRVTITCSASSSVSYMNWYQQTPGKAPKRWIYDTSKLASGVPSRFSGSGSGTDYTFTISSLQPEDIATYYCQQWSSNPFTFGQGTKLQIT
notes: Expression was very low; also called kgH221A/gH341; kgH221A/kgH341
B1: no binding.
